± gives the standard deviation of the averaged measurements.
What follows are sequences tested on Saccharomyces cerevisiae (assay: protein stability index of tFT-peptide fusion (C-terminal peptide) (PSI (0-1 scale)); higher = more stable (slower turnover)). Conditions: genetic background: wild type; temperature: 30 C.
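Further: PSI is a weighted mean of sequencing reads over stability bins, variants kept only with over 10 reads, mCherry proximal and sfGFP distal, peptide attached via GGGS linker.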

Row | Sequence | protein stability index
1 | PRPAPGGSPALT | 0.689 ± 0.083
2 | PRPAPLPAPPPS | 0.679 ± 0.029
3 | PRPISLFPLPPP | 0.693 ± 0.057
4 | PRPLPPPPAFLP | 0.766 ± 0.08
5 | PRPPAPRTGPPP | 0.633 ± 0.011
6 | PRPPHPPPSSPR | 0.69 ± 0.096
7 | PRPPPPRIPRPD | 0.7 ± 0.12
8 | PRPPPPSVARVP | 0.64711 ± 0.0003
9 | PRPPRWSSPWPV | 0.719 ± 0.058
10 | PRPPYTPSPPHQ | 0.774 ± 0.016
11 | PRPRSPLSPLAL | 0.676 ± 0.031
12 | PRPRTQPHPGPG | 0.711 ± 0.0096
13 | PRQLPVRKVSTG | 0.7042 ± 0.0022
14 | PRRHLALLISEG | 0.6868 ± 0.00082
15 | PRRPAPSPLPTP | 0.718 ± 0.2
16 | PRRPATTSIPTT | 0.672 ± 0.038
17 | PRRPLPPSPPRE | 0.729 ± 0.022
18 | PRRRLVLDDRPT | 0.72823 ± 6.5e-05
19 | PRSPPHLRWTRY | 0.686 ± 0.013
20 | PRSPPLTHVSLH | 0.697 ± 0.043
21 | PRSPPPPSPPPY | 0.583 ± 0.02
22 | PRSPPSPTLPHP | 0.609 ± 0.027
23 | PSAASIFLPFPL | 0.733 ± 0.048
24 | PSAGPVVLPTPP | 0.704 ± 0.013
25 | PSCALAFRSEPH | 0.741 ± 0.018
26 | PSCDCFLLLAPR | 0.665 ± 0.055

Row | Sequence | protein stability index
27 | PSCPAFPSPPPS | 0.696 ± 0.014
28 | PSDTHTPDQPAK | 0.694 ± 0.056
29 | PSELLPQLPSRW | 0.702 ± 0.019
30 | PSETPSPLTLCS | 0.722 ± 0.037
31 | PSFSPPQVPFPV | 0.721 ± 0.06
32 | PSGFPLRSYLPP | 0.707 ± 0.049
33 | PSGPPPSLFPSA | 0.661 ± 0.052
34 | PSHGSRPSPPLR | 0.676 ± 0.034
35 | PSHPPPPATPCP | 0.7108 ± 0.0065
36 | PSKTTALTGPDP | 0.737 ± 0.008
37 | PSLLSSPPPPLL | 0.737 ± 0.073
38 | PSLNNTMLKENK | 0.62 ± 0.061
39 | PSLPPDLPPPPA | 0.744 ± 0.011
40 | PSLPPPRRPLSP | 0.671 ± 0.017
41 | PSLPPSPISPPH | 0.588 ± 0.013
42 | PSLPVPLVPPLS | 0.633 ± 0.014
43 | PSLPWSGPPVPC | 0.664 ± 0.013
44 | PSLQPPLHYPPP | 0.6448 ± 0.0044
45 | PSLRPPPLPPLS | 0.7214 ± 0.0025
46 | PSPAALLPPPPP | 0.643 ± 0.014
47 | PSPALPSLSTPL | 0.669 ± 0.047
48 | PSPAPPPLPFPR | 0.72 ± 0.038
49 | PSPAPTPPTPHS | 0.721 ± 0.28
50 | PSPCRPPHTSAG | 0.646 ± 0.048
51 | PSPFPCVFRFSA | 0.635 ± 0.029
52 | PSPHRFPAPTLP | 0.687 ± 0.039

Row | Sequence | protein stability index
53 | PSPLPPPVSRPP | 0.691 ± 0.049
54 | PSPLRASPTAVF | 0.62 ± 0.013
55 | PSPPAPFPVCLL | 0.617 ± 0.011
56 | PSPPFFLTAASL | 0.668 ± 0.01
57 | PSPPPAPPPHSP | 0.665 ± 0.022
58 | PSPPPLSSPPSP | 0.6425 ± 0.003
59 | PSPPPPPALPSH | 0.66 ± 0.13
60 | PSPPPPPPPQPS | 0.722 ± 0.059
61 | PSPPPPTVPHPP | 0.6779 ± 0.00096
62 | PSPPSRFPPCTP | 0.76987 ± 0.00013
63 | PSPPTLILPPHP | 0.663 ± 0.0095
64 | PSPPTPHPPCRS | 0.746 ± 0.013
65 | PSPPYLIPHALS | 0.676 ± 0.041
66 | PSPRPPPSPPLP | 0.695 ± 0.037
67 | PSPSAPPPLSPL | 0.546 ± 0.052
68 | PSPSFLVFATSY | 0.628 ± 0.027
69 | PSPSPPLAPPVT | 0.647 ± 0.038
70 | PSPSPPRLLPPP | 0.7 ± 0.031
71 | PSPSPSPPLPPP | 0.652 ± 0.0077
72 | PSPSRAPPMAPS | 0.6982 ± 0.0013
73 | PSPVLLPPFVSP | 0.706 ± 0.0089
74 | PSRIRPPTASPP | 0.76 ± 0.061
75 | PSRPLPPPPPPL | 0.765 ± 0.14
76 | PSRPPPARSSPP | 0.652 ± 0.0069
77 | PSRPPRLPPASF | 0.681 ± 0.046
78 | PSRSLSSPPSSR | 0.64 ± 0.019

Row | Sequence | protein stability index
79 | PSSCSPPPSSPS | 0.692 ± 0.064
80 | PSSPPLPPPSPP | 0.644 ± 0.03
81 | PSSPPSLSPPLP | 0.7177 ± 0.0034
82 | PSSPPVLPLHFH | 0.728 ± 0.019
83 | PSSPSPLRPPSP | 0.666 ± 0.096
84 | PSSSDHDTRQKK | 0.708 ± 0.058
85 | PSSSFFFLSSYL | 0.706 ± 0.043
86 | PSTHPPTLPRPC | 0.712 ± 0.024
87 | PSTILLRYRPSV | 0.825 ± 0.16
88 | PSTLPLRLPRMF | 0.644 ± 0.057
89 | PSTPFAPPSATY | 0.685 ± 0.014
90 | PSWLLFGVHGGW | 0.71 ± 0.056
91 | PTGQSSVESGAG | 0.693 ± 0.088
92 | PTGRGRSAYLVL | 0.6875 ± 0.0058
93 | PTHCWSGLSGKG | 0.703 ± 0.016
94 | PTHPHLTLTETP | 0.687 ± 0.017
95 | PTIMYIRKTEER | 0.692 ± 0.043
96 | PTIRKDPLGFLR | 0.707 ± 0.0084
97 | PTKKRQHSDRRK | 0.644 ± 0.013
98 | PTLFSLLLRAFL | 0.623 ± 0.13
99 | PTLSPRSPRFAS | 0.755 ± 0.035
100 | PTNISEKVGAKS | 0.671 ± 0.02
101 | PTPHPHTGSLEG | 0.651 ± 0.011

Source: the supplement of paper PMC10724198
